Measurements taken from article PMC5432616 (The Protein Journal, 2017).

Biological target: the molecule itself
Experiment: dynamic light scattering; Zetasizer Nano S, 6 μM enzyme, 50 mM Hepes pH 7.4, 0.5 M NaCl, 25 °C; also with L-Orn and α-KG at saturating concentrations

B1: R217A variant of human ornithine δ-aminotransferase (enzyme, UniProt P04181 26-439, looked up)
chain: TSVATKKTVQGPPTSDDIFEREYKYGAHNYHPLPVALERGKGIYLWDVEGRKYFDFLSSYSAVNQGHCHPKIVNALKSQVDKLTLTSRAFYNNVLGEYEEYITKLFNYHKVLPMNTGVEAGETACKLARKWGYTVKGIQKYKAKIVFAAGNFWGRTLSAISSSTDPTSYDGFGPFMPGFDIIPYNDLPALEAALQDPNVAAFMVEPIQGEAGVVVPDPGYLMGVRELCTRHQVLFIADEIQTGLARTGRWLAVDYENVRPDIVLLGKALSGGLYPVSAVLCDDDIMLTIKPGEHGSTYGGNPLGCRVAIAALEVLEEENLAENADKLGIILRNELMKLPSDVVTAVRGKGLLNAIVIKETKDWDAWKVCLRLRDNGLLAKPTHGDIIRFAPPLVIKEDELRESIEIINKTILSF
notes: the protein as purified is reconstituted with PLP, so probably the holo-form (PLP on Lys292); A start Met from the NdeI site probably precedes T26; also called R217A mutant; dimeric variant R217A; source: E. coli BL21(DE3)pLysS, purified (DEAE Sepharose, Superdex 200)
B1 was tested, and the “stoichiometry N” value was 2.
